Sequences and labels used below:
T1: Abp1 SH3 (ABP1_YEAST), P15891
T1 chain: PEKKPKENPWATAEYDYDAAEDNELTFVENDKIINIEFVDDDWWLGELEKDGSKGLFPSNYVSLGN

The target in this test is T1, Abp1 SH3 (ABP1_YEAST), P15891. The test can be described thus: SPOT array.
Turning to ISMIPRYPVTSRP [YDL056W 329-341], the normalised SPOT signal, Boehringer light units (BLU); mean over the file's lines of this peptide amounted to 2470. For ILVSLLIHSLPRKP [YGL104C 354-367] the value was 176; for IIPIAKTPLNARP [YJR001W 478-490], 74.7; for IILENFIVEVPDKP [YKL005C 358-371], 57.8. ISNLGGKSIDPHKP [YNL212W 461-474] registered a normalised SPOT signal, Boehringer light units (BLU); mean over the file's lines of this peptide of 91.3. ITKILRIIGFPSRP [YNL247W 569-582] returned a normalised SPOT signal, Boehringer light units (BLU); mean over the file's lines of this peptide of 43.2.

In the case of IRPDGRLPHQFRP [YDL111C 21-33], the normalised SPOT signal, Boehringer light units (BLU); mean over the file's lines of this peptide is 1260. For ITSYAVSPYAQKP [YJL166W 24-36] the value was 90.7; for ITELISGYMLPLRP [YJL212C 542-555], 149; for IPPPQTLPNGQKP [YGL222C 52-64], 57.2. For IYLTKLFMEWPFKP [YMR228W 312-325], the normalised SPOT signal, Boehringer light units (BLU); mean over the file's lines of this peptide is 118. For KAGGPRAPQGPRP [YJL008C 549-561] the value was 209. For IKMASFLPVPEKP [YNL206C 123-135] the value was 370; for IITDTTRPSNNRP [YOR368W 277-289], 126. ISGVYYSNWSPYKP [YDR371W 74-87] showed a normalised SPOT signal, Boehringer light units (BLU); mean over the file's lines of this peptide of 91.7. For the molecule IKPPKHIRNEPVKP [YHR037W 22-35], the normalised SPOT signal, Boehringer light units (BLU); mean over the file's lines of this peptide is 87.3. For IPTRENTPSAFKP [YDL231C 441-453] the value was 204. Molecule IKKSVSSPKVSKP [YLR453C 47-59] showed a normalised SPOT signal, Boehringer light units (BLU); mean over the file's lines of this peptide of 114.

The molecule ILIGLLKDILPQRP [YNR011C 357-370] had a normalised SPOT signal, Boehringer light units (BLU); mean over the file's lines of this peptide of 97.3. For KSEPELYPNGIKP [YBR058C 403-415] the value was 13.7; for IQESMKHPKHFRP [YKL146W 503-515], 822; for KAEMKAGTTAPPKP [YLR234W 517-530], 211.

With IPSGKVDPVTKKP [YJR024C 135-147], the normalised SPOT signal, Boehringer light units (BLU); mean over the file's lines of this peptide is 21.

The molecule IYDVIEVVPEPGKP [YDR301W 1056-1069] registered a normalised SPOT signal, Boehringer light units (BLU); mean over the file's lines of this peptide of 80.4.

As for ILEEDLNPDAPPKP [YPL057C 39-52], the normalised SPOT signal, Boehringer light units (BLU); mean over the file's lines of this peptide was determined as 76.3. In the case of IKEEERLQSQPPRP [YGR268C 17-30], the normalised SPOT signal, Boehringer light units (BLU); mean over the file's lines of this peptide was 137.

For INAYSNIPPQQRP [YCR033W 972-984], the normalised SPOT signal, Boehringer light units (BLU); mean over the file's lines of this peptide was 84.6.

As to ISLDSPIPENIKP [YNL102W 567-579], the normalised SPOT signal, Boehringer light units (BLU); mean over the file's lines of this peptide was 95.3.

The molecule INLAVNMPPGQRP [YEL055C 74-86] showed a normalised SPOT signal, Boehringer light units (BLU); mean over the file's lines of this peptide of 163. For ILVESSSPLSSKP [YGL248W 276-288] the value was 52.3. For IIHTDDLPEGIRP [YLR090W 426-438] the value was 125; for INLANEQPVLEKP [YDR227W 195-207], 105; for IPEYILDPNAQKP [YAL058W 299-311], 50. On to IKPDAVVPERVKP [YPR171W 226-238], for which the normalised SPOT signal, Boehringer light units (BLU); mean over the file's lines of this peptide was 38.6. As for ISKWTIMPHPNRP [YOL008W 136-148], the normalised SPOT signal, Boehringer light units (BLU); mean over the file's lines of this peptide was determined as 1030. Consider IMSPVGNPEGPEKP [YKL060C 311-324], for which the normalised SPOT signal, Boehringer light units (BLU); mean over the file's lines of this peptide is 153. In turn, ILTFSTKKSKPIRP [YMR259C 332-345] returned a normalised SPOT signal, Boehringer light units (BLU); mean over the file's lines of this peptide of 1350. ISSQIAQPYEDRP [YDR280W 60-72] showed a normalised SPOT signal, Boehringer light units (BLU); mean over the file's lines of this peptide of 43.3.

With ILDKTSPETAPHKP [YOR176W 118-131], the normalised SPOT signal, Boehringer light units (BLU); mean over the file's lines of this peptide was 86.1.

As to ISPVIIPLGNPKRP [YGR177C 149-162], the normalised SPOT signal, Boehringer light units (BLU); mean over the file's lines of this peptide came out at 90.9.

Molecule IPLLKEKPNALKP [YOR001W 149-161] gave a normalised SPOT signal, Boehringer light units (BLU); mean over the file's lines of this peptide of 2180. In the case of INPLGITPLGPKP [YKR076W 353-365], the normalised SPOT signal, Boehringer light units (BLU); mean over the file's lines of this peptide was 9.5. The molecule ILKQDLIPSIGKP [YNR027W 300-312] came in with a normalised SPOT signal, Boehringer light units (BLU); mean over the file's lines of this peptide of 73. Take IPGLGYLENNPGRP [YOL146W 66-79]: the normalised SPOT signal, Boehringer light units (BLU); mean over the file's lines of this peptide turned out to be 155. For IRRYLRVPNELKP [YJL004C 4-16] the value was 105; for ILYKSNDVELPGKP [YMR094W 38-51], 0; for IPSENNIFFIPQKP [YPL147W 673-686], 79.8. INQFGIVPLGPKP [YGR154C 339-351]: the normalised SPOT signal, Boehringer light units (BLU); mean over the file's lines of this peptide was 133. As for ISRWVNFPWDAKP [YIL085C 295-307], the normalised SPOT signal, Boehringer light units (BLU); mean over the file's lines of this peptide amounted to 172. For KARHVLYPKGVKP [YDR463W 278-290] the value was 174.

Turning to IPILIKMSRSPPRP [YDR243C 233-246], the normalised SPOT signal, Boehringer light units (BLU); mean over the file's lines of this peptide amounted to 2420.

IRGFKSKPGTAKP [YDR409W 265-277] showed a normalised SPOT signal, Boehringer light units (BLU); mean over the file's lines of this peptide of 434. For ILAILQELSLPSRP [YGR002C 424-437] the value was 15.7; for IVFKNVSFTYPTRP [YLR188W 432-445], 87.

The record behind these values is paper PMC314469, “Protein Interaction Networks by Proteome Peptide Scanning” (PLoS Biology, 2004).
